The values that follow are results of earlier work, collected in patent US5770693A, “Calpain-inhibiting peptide analogs of the kininogen heavy chain” (Temple University-Of The Commonwealth System of Higher …, priority 1995, dated 1998).

This data set addresses T1, papain (Carica papaya, UniProt P00784).
T1 sequence (P00784 134-345): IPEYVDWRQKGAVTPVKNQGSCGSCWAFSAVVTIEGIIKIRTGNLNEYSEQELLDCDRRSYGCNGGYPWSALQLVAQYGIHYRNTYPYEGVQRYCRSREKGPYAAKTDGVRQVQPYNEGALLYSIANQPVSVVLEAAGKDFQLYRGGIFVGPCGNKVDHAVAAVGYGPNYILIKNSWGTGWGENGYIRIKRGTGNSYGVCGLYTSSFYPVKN

As for “Gln-Val-Val-Ala-Gly (QVVAG; printed: Gln-Val-Val-Ala-Gly) [pentapeptide contained in kininogen heavy chain domains D2 and D3]”, the “activity in inhibiting papain (in words)” value is “weak activity”.
